T1: FcγRIIb extracellular domain with C-terminal His tag (human, UniProt P31994 43-217)
T1 construct: extracellular domain; also called FcgRIIb; 2b; not shown: His tag at the C terminus
T1 sequence (looked up): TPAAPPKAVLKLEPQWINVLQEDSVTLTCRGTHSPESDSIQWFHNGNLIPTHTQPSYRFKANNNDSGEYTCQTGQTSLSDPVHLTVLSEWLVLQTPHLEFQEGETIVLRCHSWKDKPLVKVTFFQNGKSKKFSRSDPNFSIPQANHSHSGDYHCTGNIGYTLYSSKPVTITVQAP

B1: GpH7-A5/GpH7-B3 variant A327_20W/GpL16-k0 (antibody, human IgG1, kappa)
heavy 1: not shown
heavy 2: not shown
light: DIVMTQSPLSLPVTPGEPASISCQASESLVHSNRNTYLHWYLQKPGQSPQLLIYKVSNRFSGVPDRFSGSGSGTDFTLKISRVEAEDVGVYYCSQNTHVPPTFGQGTKVEIERTVAAPSVFIFPPSDEQLKSGTASVVCLLNNFYPREAKVQWKVDNALQSGNSQESVTEQDSKDSTYSLSSTLTLSKADYEKHKVYACEVTHQGLSSPVTKSFNRGEC
notes: Heterodimerized IgG1 antibody; alteration in the GpH7-B3 chain only; also called He Ab
B2: GpH7-A5/GpH7-B3 variant N325_19Q/GpL16-k0 (antibody, human IgG1, kappa)
heavy 1: not shown
heavy 2: not shown
light: B1 light
notes: as for B1
B3: GpH7-A5/GpH7-B3 variant L328_02A/GpL16-k0 (antibody, human IgG1, kappa)
heavy 1: not shown
heavy 2: not shown
light: B1 light
notes: as for B1
B4: GpH7-A5/GpH7-B3 variant N325_05P/GpL16-k0 (antibody, human IgG1, kappa)
heavy 1: not shown
heavy 2: not shown
light: B1 light
notes: as for B1
B5: GpH7-A5/GpH7-B3 variant N325_15Y/GpL16-k0 (antibody, human IgG1, kappa)
heavy 1: not shown
heavy 2: not shown
light: B1 light
notes: as for B1
B6: GpH7-A5/GpH7-B3 variant S324_05P/GpL16-k0 (antibody, human IgG1, kappa)
heavy 1: not shown
heavy 2: not shown
light: B1 light
notes: as for B1
B7: GpH7-A5/GpH7-B3 variant K326_19Q/GpL16-k0 (antibody, human IgG1, kappa)
heavy 1: not shown
heavy 2: not shown
light: B1 light
notes: as for B1
B8: GpH7-A5/GpH7-B3 variant N325_14T/GpL16-k0 (antibody, human IgG1, kappa)
heavy 1: not shown
heavy 2: not shown
light: B1 light
notes: as for B1
B9: GpH7-A5/GpH7-B3 variant Y296_01G/GpL16-k0 (antibody, human IgG1, kappa)
heavy 1: not shown
heavy 2: not shown
light: B1 light
notes: as for B1
B10: GpH7-A5/GpH7-B3 variant K326_20W/GpL16-k0 (antibody, human IgG1, kappa)
heavy 1: not shown
heavy 2: not shown
light: B1 light
notes: as for B1
B11: GpH7-A5/GpH7-B3 variant L328_03V/GpL16-k0 (antibody, human IgG1, kappa)
heavy 1: not shown
heavy 2: not shown
light: B1 light
notes: as for B1
B12: GpH7-A5/GpH7-B3 variant S298_08L/GpL16-k0 (antibody, human IgG1, kappa)
heavy 1: not shown
heavy 2: not shown
light: B1 light
notes: as for B1
B13: GpH7-A5/GpH7-B3 variant K326_08L/GpL16-k0 (antibody, human IgG1, kappa)
heavy 1: not shown
heavy 2: not shown
light: B1 light
notes: as for B1
B14: GpH7-A5/GpH7-B3 variant P271_09D/GpL16-k0 (antibody, human IgG1, kappa)
heavy 1: not shown
heavy 2: not shown
light: B1 light
notes: as for B1
B15: GpH7-A5/GpH7-B3 variant N325_03V/GpL16-k0 (antibody, human IgG1, kappa)
heavy 1: not shown
heavy 2: not shown
light: B1 light
notes: as for B1
B16: GpH7-A5/GpH7-B3 variant N325_07I/GpL16-k0 (antibody, human IgG1, kappa)
heavy 1: not shown
heavy 2: not shown
light: B1 light
notes: as for B1
B17: GpH7-A5/GpH7-B3 variant N325_04F/GpL16-k0 (antibody, human IgG1, kappa)
heavy 1: not shown
heavy 2: not shown
light: B1 light
notes: as for B1
B18: GpH7-A5/GpH7-B3 variant Y296_11K/GpL16-k0 (antibody, human IgG1, kappa)
heavy 1: not shown
heavy 2: not shown
light: B1 light
notes: as for B1
B19: GpH7-A5/GpH7-B3 variant N325_09D/GpL16-k0 (antibody, human IgG1, kappa)
heavy 1: not shown
heavy 2: not shown
light: B1 light
notes: as for B1
B20: GpH7-A5/GpH7-B3 variant N325_20W/GpL16-k0 (antibody, human IgG1, kappa)
heavy 1: not shown
heavy 2: not shown
light: B1 light
notes: as for B1
B21: GpH7-A5/GpH7-B3 variant L328_05P/GpL16-k0 (antibody, human IgG1, kappa)
heavy 1: not shown
heavy 2: not shown
light: B1 light
notes: as for B1
B22: GpH7-A5/GpH7-B3 variant K326_03V/GpL16-k0 (antibody, human IgG1, kappa)
heavy 1: not shown
heavy 2: not shown
light: B1 light
notes: as for B1
B23: GpH7-A5/GpH7-B3 variant N325_06M/GpL16-k0 (antibody, human IgG1, kappa)
heavy 1: not shown
heavy 2: not shown
light: B1 light
notes: as for B1
B24: GpH7-A5/GpH7-B3 variant N325_13S/GpL16-k0 (antibody, human IgG1, kappa)
heavy 1: not shown
heavy 2: not shown
light: B1 light
notes: as for B1
B25: GpH7-A5/GpH7-B3 variant K326_15Y/GpL16-k0 (antibody, human IgG1, kappa)
heavy 1: not shown
heavy 2: not shown
light: B1 light
notes: as for B1
B26: GpH7-A5/GpH7-B3 variant K326_06M/GpL16-k0 (antibody, human IgG1, kappa)
heavy 1: not shown
heavy 2: not shown
light: B1 light
notes: as for B1
B27: GpH7-A5/GpH7-B3 variant K326_09D/GpL16-k0 (antibody, human IgG1, kappa)
heavy 1: not shown
heavy 2: not shown
light: B1 light
notes: as for B1
B28: GpH7-A5/GpH7-B3 variant K326_07I/GpL16-k0 (antibody, human IgG1, kappa)
heavy 1: not shown
heavy 2: not shown
light: B1 light
notes: as for B1
B29: GpH7-A5/GpH7-B3 variant K326_04F/GpL16-k0 (antibody, human IgG1, kappa)
heavy 1: not shown
heavy 2: not shown
light: B1 light
notes: as for B1
B30: GpH7-A5/GpH7-B3 variant K326_10E/GpL16-k0 (antibody, human IgG1, kappa)
heavy 1: not shown
heavy 2: not shown
light: B1 light
notes: as for B1
B31: GpH7-A5/GpH7-B3 variant N325_11K/GpL16-k0 (antibody, human IgG1, kappa)
heavy 1: not shown
heavy 2: not shown
light: B1 light
notes: as for B1
B32: GpH7-A5/GpH7-B3 variant N325_02A/GpL16-k0 (antibody, human IgG1, kappa)
heavy 1: not shown
heavy 2: not shown
light: B1 light
notes: as for B1
B33: GpH7-A5/GpH7-B3 variant N325_08L/GpL16-k0 (antibody, human IgG1, kappa)
heavy 1: not shown
heavy 2: not shown
light: B1 light
notes: as for B1
B34: GpH7-A5/GpH7-B3 variant L328_04F/GpL16-k0 (antibody, human IgG1, kappa)
heavy 1: not shown
heavy 2: not shown
light: B1 light
notes: as for B1
B35: GpH7-A5/GpH7-B3 variant N325_10E/GpL16-k0 (antibody, human IgG1, kappa)
heavy 1: not shown
heavy 2: not shown
light: B1 light
notes: as for B1
B36: GpH7-A5/GpH7-B3 variant P271_14T/GpL16-k0 (antibody, human IgG1, kappa)
heavy 1: not shown
heavy 2: not shown
light: B1 light
notes: as for B1
B37: GpH7-A5/GpH7-B3 variant S298_05P/GpL16-k0 (antibody, human IgG1, kappa)
heavy 1: not shown
heavy 2: not shown
light: B1 light
notes: as for B1
B38: GpH7-A5/GpH7-B3 variant L328_01G/GpL16-k0 (antibody, human IgG1, kappa)
heavy 1: not shown
heavy 2: not shown
light: B1 light
notes: as for B1

Biological target: T2, FcγRIIIa extracellular domain with C-terminal His tag (human, UniProt P08637 17-208)
T2 construct: extracellular domain; also called FcgRIIIa; 3a; not shown: His tag at the C terminus
Experiment: SPR (Biacore); He/Con_3a divided by He/Con_2b (FcγRIIb)

T2 sequence (P08637 17-208): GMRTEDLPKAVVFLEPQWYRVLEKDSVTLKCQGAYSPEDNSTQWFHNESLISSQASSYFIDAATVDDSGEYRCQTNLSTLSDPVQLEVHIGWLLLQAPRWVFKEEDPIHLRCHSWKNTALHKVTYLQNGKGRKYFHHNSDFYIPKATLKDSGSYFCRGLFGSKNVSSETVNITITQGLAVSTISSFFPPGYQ

Row | He_3a/2b (IIIa/IIb) [ratio] | Binder
1 | 0.65 | B1
2 | 0.46 | B2
3 | 0.55 | B3
4 | 0.39 | B4
5 | 0.3 | B5
6 | 0.69 | B6
7 | 0.76 | B7
8 | 0.43 | B8
9 | 0.69 | B9
10 | 0.57 | B10
11 | 0.63 | B11
12 | 0.68 | B12
13 | 0.65 | B13
14 | 0.77 | B14
15 | 0.27 | B15
16 | 0.17 | B16
17 | 0.14 | B17
18 | 0.78 | B18
19 | 0.39 | B19

Row | He_3a/2b (IIIa/IIb) [ratio] | Binder
20 | 0.19 | B20
21 | 0.62 | B21
22 | 0.7 | B22
23 | 0.14 | B23
24 | 0.37 | B24
25 | 0.7 | B25
26 | 0.7 | B26
27 | 0.69 | B27
28 | 0.7 | B28
29 | 0.66 | B29
30 | 0.62 | B30
31 | 0.5 | B31
32 | 0.47 | B32
33 | 0.17 | B33
34 | 0.36 | B34
35 | 0.4 | B35
36 | 0.59 | B36
37 | 0.69 | B37
38 | 0.56 | B38

Biological target: T1, FcγRIIb extracellular domain with …
Experiment: SPR (Biacore), FcγR as analyte over captured antibody; GpH7-A5/GpH7-B3/GpL16-k0 = 100
Protocol: (§1) The heterodimerized antibodies He Abs in which one of the H chains was introduced with an alteration were assayed for their binding activities to each activating FcγR and inhibitory FcγR according to the method described in Example 4. […] The activating FcγRs in FIGS. 26, 27, 28, and 29 are FcγRIa, FcγRIIa (R), FcγRIIa (H), and FcγRIIIa, respectively.
(§2) Analysis of interaction between objective antibody and the FcγR was carried out using Biacore T100 (GE Healthcare). HBS-EP+ (GE Healthcare) was used as the running buffer, and the measurement temperature was set to 25° C. Chips produced by immobilizing the antigen peptide by the amine coupling method to a Series S Sencor Chip CM5 (GE Healthcare), or alternatively, chips produced by allowing preliminarily biotinylated antigen peptides to interact with and immobilize onto a Series S Sensor Chip SA (certified) (GE Healthcare) were used. Antibodies of interest were captured onto an antigen peptide-immobilized chip, and allowed to interact to each FcγR diluted with running buffer. To regenerate and repeatedly use the chip, the antibodies captured on the chip were washed off by reacting 10 mM glycine-HCl, pH 1.5.

Row | He/Con_2b | Binder
39 | 78.8 % of control | B1
40 | 69.1 % of control | B2
41 | 144 % of control | B3
42 | 26 % of control | B4
43 | 99.5 % of control | B5
44 | 94.7 % of control | B6
45 | 139 % of control | B7
46 | 91.6 % of control | B8
47 | 79.3 % of control | B9
48 | 148 % of control | B10
49 | 126 % of control | B11
50 | 108 % of control | B12
51 | 177 % of control | B13
52 | 120 % of control | B14
53 | 111 % of control | B15
54 | 171 % of control | B16
55 | 143 % of control | B17
56 | 72.8 % of control | B18
57 | 124 % of control | B19

Row | He/Con_2b | Binder
58 | 169 % of control | B20
59 | 65.1 % of control | B21
60 | 175 % of control | B22
61 | 217 % of control | B23
62 | 177 % of control | B24
63 | 159 % of control | B25
64 | 165 % of control | B26
65 | 193 % of control | B27
66 | 199 % of control | B28
67 | 155 % of control | B29
68 | 200 % of control | B30
69 | 10.4 % of control | B31
70 | 64.4 % of control | B32
71 | 197 % of control | B33
72 | 219 % of control | B34
73 | 95.9 % of control | B35
74 | 95.4 % of control | B36
75 | 11.9 % of control | B37
76 | 80.2 % of control | B38

Biological target: T2, FcγRIIIa extracellular domain with …
Experiment: as above
Protocol: as §1, §2

Row | He/Con_3a | Binder
77 | 51.2 % of control | B1
78 | 31.6 % of control | B2
79 | 79.1 % of control | B3
80 | 10.2 % of control | B4
81 | 29.5 % of control | B5
82 | 65.5 % of control | B6
83 | 106 % of control | B7
84 | 39.4 % of control | B8
85 | 54.5 % of control | B9
86 | 84.8 % of control | B10
87 | 78.7 % of control | B11
88 | 73.5 % of control | B12
89 | 114 % of control | B13
90 | 93.1 % of control | B14
91 | 30.3 % of control | B15
92 | 28.7 % of control | B16
93 | 20.7 % of control | B17
94 | 56.7 % of control | B18
95 | 48 % of control | B19

Row | He/Con_3a | Binder
96 | 32.8 % of control | B20
97 | 40.5 % of control | B21
98 | 122 % of control | B22
99 | 31.4 % of control | B23
100 | 65.1 % of control | B24
101 | 112 % of control | B25
102 | 115 % of control | B26
103 | 134 % of control | B27
104 | 139 % of control | B28
105 | 103 % of control | B29
106 | 124 % of control | B30
107 | 5.2 % of control | B31
108 | 30.5 % of control | B32
109 | 33.3 % of control | B33
110 | 79.3 % of control | B34
111 | 38.2 % of control | B35
112 | 56.4 % of control | B36
113 | 8.2 % of control | B37
114 | 44.9 % of control | B38

From patent publication US20150344570A1 (published 2015)
